Eight molecules from US20220306734A1 (H LUNDBECK A S, published 2022) can be followed below.

Assay [1] deals with human mGluR5 extracellular domain (human-mGluR5-ECD) (human) (UniProt P41594). Put plainly: HTRF, soluble ECD. For orientation: TR-FRET usually uses a lanthanide donor and a delayed reading to cut background.
The target is the same in assay [2]. Put plainly: HTRF, soluble ECD. The source holds these as a separate data set.
The target in assay [3] is full-length (FL) human mGluR5 on BA/F3-mGluR5 clone 10C9 cells (human) (UniProt P41594). Put plainly: cell-based or functional assay.
Assay [4] concerns the target T1, rat mGluR5 extracellular domain (rat-mGluR5-ECD) (rat, UniProt P31424 21-504).
T1 construct: ECD construct made 'in a similar fashion' to the human one
Put plainly: HTRF, soluble ECD. The method, then:
(§1) Binding of antibodies to mGluR5/mGluRJ measured via Homogeneous Time-Resolved Fluorescence (HTRF). Binding assays were performed using HTRF reagents from CisBio. Ten microliters of an antibody dilution series (highest final concentration of 30 nM) was incubated with 10 μl of mGluR-ECD (10 nM final concentration) in HTRF buffer (50 mM Phosphate buffer pH7, 0.8M KF (potassium fluoride), 0.2% BSA). Twenty microliters of Europium-labeled anti-hu-Fc donor (2 nM final concentration, CisBio Catalog No. 61HFCKLB) and 20 μl of XL665-labeled anti-Flag acceptor (60 nM final concentration, CisBio Catalog No. 61FG2XLB) were added to each well and incubated for 1 hour at room temperature. Alternatively, the antibody dilution series was incubated with 10 μl of biotinylated mGluR-ECD (10 nM final concentration), and 20 μl of Europium-labeled anti-hu-Fc donor (2 nM final concentration) and 20 μl of d2-labeled streptavidin acceptor (60 nM final concentration, CisBio Catalog No. 610SADLB) were added to each well. Fluorescence was measured at 620 and 665 nm with a delay of 300 μsec. Results were expressed as the ratio of signal at 665 nm over 620 nm. EC₅₀ values were calculated for binding of Ab1-Ab23 to human-mGluR5-ECD, of Ab1-Ab21 to rat-mGluR5-ECD, and of Ab1, Ab2 and Ab4-Ab12 to monkey-mGluR5-ECD and to human-mGluR1-ECD (TABLE 1).

For assay [5], the target named is T2, cynomolgus monkey mGluR5 extracellular domain (monkey-mGluR5-ECD) (cynomolgus monkey, UniProt P41594 21-580 (human entry), limits assumed).
T2 construct: ECD construct made 'in a similar fashion' to the human one; also called cyno-mGluR5
Put plainly: HTRF, soluble ECD. The procedure: as §1

For assay [6], the target named is T3, human mGluR1 extracellular domain (human-mGluR1-ECD) (human, UniProt Q13255 19-592, limits assumed).
T3 construct: ECD construct made 'in a similar fashion' to the human mGluR5 one; also called hu-mGluR1
Put plainly: HTRF, soluble ECD. The method, then: as §1

Assay [7] concerns the target full-length (FL) human mGluR5 on BA/F3-mGluR5 clone 10C9 cells (human) (UniProt P41594). Put plainly: flow cytometry, BA/F3-mGluR5 10C9 cells, 10 ug/ml antibody. (In general: A flow cytometer gives signals particle by particle.)
Assay [8] has the same target. Put plainly: flow cytometry, BA/F3-mGluR5 10C9 cells; high end tied to Ab4 by Table 2.
Assay [9] addresses human mGluR5 extracellular domain (human-mGluR5-ECD) (human) (UniProt P41594). Put plainly: AlphaLISA, biotinylated ECD.
The target is the same in assay [10]. Put plainly: AlphaLISA, biotinylated ECD. This is another data set of the same source. On the technique in general: In Alpha technology, singlet oxygen from a donor bead excites a nearby acceptor bead.
In assay [11] the target is full-length (FL) human mGluR5 on BA/F3-mGluR5 clone 10C9 cells (human) (UniProt P41594). Put plainly: flow cytometry, BA/F3-mGluR5 10C9 cells; low end tied to Ab22 by Table 2.

human mGluR5 extracellular domain (human-mGluR5-ECD) (human), sequence (P41594 other isoform, or with tags, fused parts or gaps): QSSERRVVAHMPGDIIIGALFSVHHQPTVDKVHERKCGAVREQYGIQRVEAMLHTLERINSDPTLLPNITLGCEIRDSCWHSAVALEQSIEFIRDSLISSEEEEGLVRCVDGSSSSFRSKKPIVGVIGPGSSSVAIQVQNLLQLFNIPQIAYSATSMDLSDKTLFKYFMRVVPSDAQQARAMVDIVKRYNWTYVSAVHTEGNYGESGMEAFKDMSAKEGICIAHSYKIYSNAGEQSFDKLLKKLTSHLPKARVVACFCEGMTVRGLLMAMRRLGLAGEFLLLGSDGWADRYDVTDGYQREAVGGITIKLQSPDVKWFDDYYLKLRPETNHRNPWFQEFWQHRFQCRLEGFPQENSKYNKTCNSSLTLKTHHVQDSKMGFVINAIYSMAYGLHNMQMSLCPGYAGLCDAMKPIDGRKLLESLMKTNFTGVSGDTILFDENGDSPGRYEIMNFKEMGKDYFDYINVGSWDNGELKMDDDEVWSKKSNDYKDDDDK
T1 sequence (P31424 other isoform, or with tags, fused parts or gaps limits assumed, form in doubt): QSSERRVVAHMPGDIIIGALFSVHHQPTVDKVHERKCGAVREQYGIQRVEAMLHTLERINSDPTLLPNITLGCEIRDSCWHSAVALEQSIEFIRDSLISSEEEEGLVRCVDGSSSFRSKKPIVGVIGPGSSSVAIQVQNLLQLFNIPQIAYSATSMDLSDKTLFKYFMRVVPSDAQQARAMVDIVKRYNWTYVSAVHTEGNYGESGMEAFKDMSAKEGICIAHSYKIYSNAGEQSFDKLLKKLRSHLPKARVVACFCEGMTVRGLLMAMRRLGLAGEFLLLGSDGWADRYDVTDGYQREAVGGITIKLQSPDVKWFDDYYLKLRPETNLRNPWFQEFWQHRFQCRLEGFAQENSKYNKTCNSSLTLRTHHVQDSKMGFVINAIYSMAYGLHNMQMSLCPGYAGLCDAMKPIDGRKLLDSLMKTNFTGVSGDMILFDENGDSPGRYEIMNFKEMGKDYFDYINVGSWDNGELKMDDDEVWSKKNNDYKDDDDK
T2 sequence (P41594 other isoform, or with tags, fused parts or gaps limits assumed): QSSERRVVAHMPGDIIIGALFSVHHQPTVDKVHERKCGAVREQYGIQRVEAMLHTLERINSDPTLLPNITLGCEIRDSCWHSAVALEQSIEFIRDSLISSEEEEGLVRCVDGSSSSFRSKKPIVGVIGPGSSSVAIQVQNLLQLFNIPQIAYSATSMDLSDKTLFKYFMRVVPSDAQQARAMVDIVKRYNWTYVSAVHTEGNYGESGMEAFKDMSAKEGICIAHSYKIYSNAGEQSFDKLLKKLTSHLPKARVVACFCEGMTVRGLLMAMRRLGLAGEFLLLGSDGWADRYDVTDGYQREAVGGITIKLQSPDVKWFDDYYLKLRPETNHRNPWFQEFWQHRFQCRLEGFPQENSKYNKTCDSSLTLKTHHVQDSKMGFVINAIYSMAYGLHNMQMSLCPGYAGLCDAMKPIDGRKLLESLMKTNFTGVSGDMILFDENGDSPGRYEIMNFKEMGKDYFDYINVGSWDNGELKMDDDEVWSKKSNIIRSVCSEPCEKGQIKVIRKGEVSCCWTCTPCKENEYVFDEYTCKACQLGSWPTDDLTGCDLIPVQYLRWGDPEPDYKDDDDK
T3 sequence (Q13255 other isoform, or with tags, fused parts or gaps limits assumed): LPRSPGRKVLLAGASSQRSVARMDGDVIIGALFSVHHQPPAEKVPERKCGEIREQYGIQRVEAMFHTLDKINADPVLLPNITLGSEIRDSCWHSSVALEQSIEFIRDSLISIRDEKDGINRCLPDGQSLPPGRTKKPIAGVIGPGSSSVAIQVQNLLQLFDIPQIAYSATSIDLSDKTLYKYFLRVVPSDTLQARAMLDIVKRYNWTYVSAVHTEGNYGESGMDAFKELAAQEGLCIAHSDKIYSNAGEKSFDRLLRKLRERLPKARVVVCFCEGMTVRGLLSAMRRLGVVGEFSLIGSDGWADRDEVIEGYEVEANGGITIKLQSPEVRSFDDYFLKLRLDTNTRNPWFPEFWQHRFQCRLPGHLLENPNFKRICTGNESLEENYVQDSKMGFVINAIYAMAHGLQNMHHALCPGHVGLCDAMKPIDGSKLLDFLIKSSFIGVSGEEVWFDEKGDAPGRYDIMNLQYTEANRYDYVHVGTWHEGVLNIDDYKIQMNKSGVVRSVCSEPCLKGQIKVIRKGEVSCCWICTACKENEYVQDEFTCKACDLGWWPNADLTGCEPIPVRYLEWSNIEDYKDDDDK

B1: mGluR5 Ab4 (antibody, V domains shown)
VH: QQQLEESGGGLVKPGGTLTLTCKGSGIDFNDYQYMCWVRQAPGKGLEWIACIYNGDGETYYAHWAKGRFTISKTSSTTVTLQMTSLTAADTATYFCARGSGVGSYGYNFWGPGTLVTVSS
VL: DIVMTQTPASVEAAVGGTVTIKCQASESIYSNLAWYQQKAGQPPKLLIYRASNLASGVPSRFKGSGSGTEFTLTISDLECADAATYYCQGYYASTVTNGFGGGTEVVVKR
notes: Rabbit variable regions on human heavy and light chain constant regions (chimeric)
As for B1, the EC50 in assay [1] was 0.293 nM; in assay [2], less than 2 nM; in assay [4] it was 0.332 nM; in assay [5], 0.286 nM. This molecule also gave a pERK Assay Inhibition IC50-nM in assay [3] of 0.34 nM. Besides, the binding result in assay [6] is “no binding”. Also, the mGluR5 (FL) cell binding-fold over background in [7] was 41.8 fold. In [8], this molecule had a fold signal over background of 10 to 42 fold.

B2: mGluR5 Ab29 (antibody, V domains shown)
VH: QQQLEESGGGLVKPGGTLTLTCKASGIDFSSYHYMCWVRQAPGKGLEWIACIYNGDGDTYYASWAKGRFTISKTSSTTVTLQMTSLTAADTATYFCARGSGVGSYGYNLWGPGTLVTVSS
VL: DIVMTQTPASVEAAVGGTVTIKCQASENIYSNLAWYQQKPGQPPKLLIYRASNLESGVPSRFKGSGSGTEFTLTISDLECDDAATYYCQGYYPSAVTNAFGGGTEVVVKR
In [3], B2 came in with a pERK Assay Inhibition IC50-nM of 0.09 nM. In addition, the figures for the EC50 in [9] and in assay [10] were 0.0891 nM and less than 2 nM, respectively. Besides, the mGluR5 (FL) cell binding-fold over background in assay [7] was 39.6 fold.

B3: mGluR5 Ab24 (antibody, V domains shown)
VH: QQQLEESGGGLVKPGGTLTLTCKASGIDFSNVYYMCWVRQAPGKGPEWIACIYVGDGSTYDASWARGRFTISKTSSTTVTLQMISLTAADTATYFCAGGTGVGSYGYSLWGPGTLVTVSS
VL: DIVMTQTPASVEAAVGGTVTIKCQASESIYSNLAWYHQKPGQPPKLLIYRASNLESGVPSRFKGSGSGTDFTLTISDLECADAATYYCQGYYASVVTNGFGGGTEVVVKR
As to B3, in [3], the pERK Assay Inhibition IC50-nM is 0.1 nM. Further, the EC50 in assay [9] is 0.0947 nM; in assay [10], less than 2 nM. Besides, the mGluR5 (FL) cell binding-fold over background in assay [7] was 37.2 fold.

B4: mGluR5 Ab27 (antibody, V domains shown)
VH: QSVEESGGGLVKPGGTLTLTCKASGIDFSSYHYMCWVRQAPGKGLEWIACIYNGDGDTYYASWAKGRFTISKTSSTTVTLQMTSLTAADTATYFCARGSGVGSYGYNLWGPGTLVTVSS
VL: DIVMTQTPASVEAAVGGTVTIKCQASESIYSNLAWYQQKPGQPPKLLIYRASNLESGVPSRFKGSGSGTEFTLTISDLECADAATYYCQGYYASTTTNAFGGGTEVVVKR
For B4, the pERK Assay Inhibition IC50-nM in assay [3] worked out at 0.06 nM. The EC50 in assay [9] is 0.0772 nM; in [10] it was less than 2 nM. The same molecule showed a mGluR5 (FL) cell binding-fold over background in [7] of 37.8 fold.

B5: mGluR5 Ab26 (antibody, V domains shown)
VH: QSVEESGGGLVKPEGSLTLTCKASGFDLSSYYYMCWVRQAPGKGPEWIACIYAGDGTTYYASWAKGRFTISKTSSTTVTLQMTSLTAADTATYFCARGTGVGSYGYNLWGPGTLVTVSS
VL: DIVMTQTPASVEAAVGGTVTIKCQASENIYSNLAWYQQKPGQPPKLLIYRASNLESGVPSRFKGSGSGTEFTLTISDLECDDAATYYCQGYYPSAVTNAFGGGTEVVVKR
Molecule B5 displayed a pERK Assay Inhibition IC50-nM in assay [3] of 0.1 nM. The EC50 in assay [9] is 0.101 nM; in assay [10], less than 2 nM. The same molecule had a mGluR5 (FL) cell binding-fold over background in assay [7] of 39.4 fold.

B6: mGluR5 Ab25 (antibody, V domains shown)
VH: QRQLEESGGGLVKPGGALTLTCKASGIDFSSYYYRCWVRQAPGKGLEWIACIYTGDGTTYYASWAKGRFTTSKTSSTTVTLQMTSLTAADTATYFCARGSGVGSYGYNFWGPGTLVTVSS
VL: DIVMTQTPASVEAAVGGTVTIKCQASESIYSNLAWYQQKPGQPPKLLIYRASTLESGVPSRFKGSGSGTEFTLTISDLECADAATYYCQGYYASIITNAFGGGTEVVVKR
In assay [3], B6 gave a pERK Assay Inhibition IC50-nM of 0.11 nM. Moreover, the figures for the EC50 in assay [9] and in [10] were 0.0915 nM and less than 2 nM, respectively. In assay [7], this molecule gave a mGluR5 (FL) cell binding-fold over background of 37.9 fold.

B7: mGluR5 Ab28 (antibody, V domains shown)
VH: QQQLEESGGGLVKPGGTLTLTCKGSGIDFNDYYYMCWVRQAPGKGLEWIACIYNGDGETYYANWAKGRFTISKTSSTTVTLQMTSLTAADTATYFCARGSGVGSYGYNFWGPGTLVTVSS
VL: DIVMTQTPASVEAAVGGTVTIKCQASESIYSNLAWYQQKPGQPPKLLIYRASNLASGVPSRFKGSGSGTEFTLTISDLECADAATYYCQGYYASTVTNAFGGGTEVVVKR
B7 gave a pERK Assay Inhibition IC50-nM in assay [3] of 0.11 nM. Moreover, the EC50 in [9] is 0.0918 nM; in [10] it was less than 2 nM. The mGluR5 (FL) cell binding-fold over background in assay [7] came to 38.9 fold.

B8: mGluR5 Ab22 (antibody, V domains shown)
VH: QSLEESGGDLVKPGASLTLTCTASGFSFSTSYYMCWVRQAPGKGLEWIGCIHTSTFSTWYASWAKGRFTISKTSSTTVTLQMTSLTAADTATYFCARRDAYNYAGYAYNLWGQGTLVTVSS
VL: DVVMTQTPASVSAAVGGTVTINCQASEDIYSNLAWYQQKPGQPPKLLIYGASTLASGVPSRFKGSGSGTEFTLTISDLECADAATYYCQCTFGCFSGSSNNIFGGGTEVVVKR
On to B8, for which the figures for the EC50 in [1] and in assay [2] were 0.439 nM and less than 2 nM, respectively. The molecule also yielded a pERK Assay Inhibition IC50-nM in assay [3] of 8.33 nM. In assay [7], this molecule displayed a mGluR5 (FL) cell binding-fold over background of 10.9 fold. In [11], this molecule returned a fold signal over background of 10 to 42 fold.

Usually EC50 stands for the concentration needed to bring the measured effect to its halfway point.
